Measurements from the supplement of paper PMC10065799, “High-throughput profiling of sequence recognition by tyrosine kinases and SH2 domains using bacterial peptide display” (eLife, 2023).

Legend:
[1] = biological target: Grb2 SH2 (UniProt P62993); assay: SH2 binding enrichment of the phosphorylated peptide, bacterial display (enrichment ratio); higher = better substrate or ligand; peptides without Tyr show the background
[2] = biological target: c-Src SH2; assay: as above
[3] = biological target: SHP2-C SH2; assay: as above
[4] = biological target: Fes (UniProt P07332); assay: phosphorylation enrichment, bacterial display (enrichment ratio); higher = better substrate or ligand; peptides without Tyr show the background
Fes, sequence (P07332 whole entry, looked up): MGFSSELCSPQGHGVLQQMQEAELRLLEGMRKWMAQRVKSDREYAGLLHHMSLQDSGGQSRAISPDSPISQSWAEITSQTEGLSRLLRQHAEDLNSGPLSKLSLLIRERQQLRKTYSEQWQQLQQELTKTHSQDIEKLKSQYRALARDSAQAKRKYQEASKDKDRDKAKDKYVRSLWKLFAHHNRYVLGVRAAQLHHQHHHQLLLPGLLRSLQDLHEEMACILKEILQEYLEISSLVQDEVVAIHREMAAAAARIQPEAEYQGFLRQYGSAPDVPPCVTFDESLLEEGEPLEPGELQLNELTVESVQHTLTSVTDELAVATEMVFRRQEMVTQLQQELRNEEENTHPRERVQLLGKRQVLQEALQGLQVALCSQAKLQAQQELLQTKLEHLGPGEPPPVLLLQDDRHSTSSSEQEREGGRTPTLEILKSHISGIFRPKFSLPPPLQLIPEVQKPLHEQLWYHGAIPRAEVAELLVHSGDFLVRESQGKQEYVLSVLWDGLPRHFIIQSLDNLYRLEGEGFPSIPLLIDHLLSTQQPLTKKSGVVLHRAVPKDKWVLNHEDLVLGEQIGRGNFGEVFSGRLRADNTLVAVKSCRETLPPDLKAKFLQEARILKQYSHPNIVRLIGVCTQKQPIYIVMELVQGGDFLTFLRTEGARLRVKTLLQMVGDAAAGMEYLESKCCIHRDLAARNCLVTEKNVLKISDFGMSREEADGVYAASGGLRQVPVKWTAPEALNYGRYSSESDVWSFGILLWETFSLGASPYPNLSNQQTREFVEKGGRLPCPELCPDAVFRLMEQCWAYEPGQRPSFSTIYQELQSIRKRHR

[5] = biological target: MERTK (UniProt Q12866); assay: as above
[6] = test system: c-Src; assay: as above
[7] = biological target: FGFR1 (UniProt P11362); assay: as above
[8] = test system: Fer (mouse); assay: as above
[9] = test system: c-Abl (mouse); assay: as above
[10] = biological target: FGFR3 (UniProt P22607); assay: as above
FGFR3, sequence (P22607 whole entry, looked up): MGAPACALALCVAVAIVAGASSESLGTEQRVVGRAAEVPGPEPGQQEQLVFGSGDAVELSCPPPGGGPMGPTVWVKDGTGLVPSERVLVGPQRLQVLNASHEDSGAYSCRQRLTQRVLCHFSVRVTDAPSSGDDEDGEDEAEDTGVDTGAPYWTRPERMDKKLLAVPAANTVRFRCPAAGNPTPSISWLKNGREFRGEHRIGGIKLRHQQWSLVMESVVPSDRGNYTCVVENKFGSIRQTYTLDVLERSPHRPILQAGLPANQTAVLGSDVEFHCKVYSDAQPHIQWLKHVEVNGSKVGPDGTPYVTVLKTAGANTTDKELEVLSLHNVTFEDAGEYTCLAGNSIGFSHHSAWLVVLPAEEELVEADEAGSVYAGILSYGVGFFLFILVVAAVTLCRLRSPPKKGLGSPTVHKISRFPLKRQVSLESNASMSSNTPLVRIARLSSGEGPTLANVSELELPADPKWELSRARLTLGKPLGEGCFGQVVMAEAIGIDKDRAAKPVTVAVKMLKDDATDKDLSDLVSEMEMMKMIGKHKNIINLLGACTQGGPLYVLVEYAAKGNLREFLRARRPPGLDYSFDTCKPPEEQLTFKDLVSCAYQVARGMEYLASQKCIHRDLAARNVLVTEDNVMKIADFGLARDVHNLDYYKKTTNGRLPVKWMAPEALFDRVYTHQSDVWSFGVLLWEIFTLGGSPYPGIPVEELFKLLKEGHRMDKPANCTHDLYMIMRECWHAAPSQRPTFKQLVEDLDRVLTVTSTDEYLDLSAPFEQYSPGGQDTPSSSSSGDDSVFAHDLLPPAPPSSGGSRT

[11] = biological target: EPHB2 (UniProt P29323); assay: as above
[12] = test system: AncSZ; assay: as above
[13] = biological target: Hck (UniProt P08631); assay: as above
Hck, sequence (P08631 whole entry, looked up): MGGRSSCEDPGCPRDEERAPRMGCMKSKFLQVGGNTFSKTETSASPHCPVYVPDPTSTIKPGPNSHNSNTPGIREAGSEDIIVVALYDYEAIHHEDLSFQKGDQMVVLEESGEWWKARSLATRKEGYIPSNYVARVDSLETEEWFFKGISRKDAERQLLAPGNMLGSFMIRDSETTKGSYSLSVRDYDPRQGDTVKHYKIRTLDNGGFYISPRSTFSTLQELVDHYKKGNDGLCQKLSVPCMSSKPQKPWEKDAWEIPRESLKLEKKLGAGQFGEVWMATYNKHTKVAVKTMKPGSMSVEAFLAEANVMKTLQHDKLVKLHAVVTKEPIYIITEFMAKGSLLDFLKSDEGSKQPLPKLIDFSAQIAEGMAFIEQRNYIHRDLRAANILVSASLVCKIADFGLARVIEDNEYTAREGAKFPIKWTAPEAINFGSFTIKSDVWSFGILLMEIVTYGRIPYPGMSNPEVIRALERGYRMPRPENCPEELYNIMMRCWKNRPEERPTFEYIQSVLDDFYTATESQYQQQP

[14] = biological target: Jak2 (UniProt O60674); assay: as above
Jak2, sequence (O60674 whole entry, looked up): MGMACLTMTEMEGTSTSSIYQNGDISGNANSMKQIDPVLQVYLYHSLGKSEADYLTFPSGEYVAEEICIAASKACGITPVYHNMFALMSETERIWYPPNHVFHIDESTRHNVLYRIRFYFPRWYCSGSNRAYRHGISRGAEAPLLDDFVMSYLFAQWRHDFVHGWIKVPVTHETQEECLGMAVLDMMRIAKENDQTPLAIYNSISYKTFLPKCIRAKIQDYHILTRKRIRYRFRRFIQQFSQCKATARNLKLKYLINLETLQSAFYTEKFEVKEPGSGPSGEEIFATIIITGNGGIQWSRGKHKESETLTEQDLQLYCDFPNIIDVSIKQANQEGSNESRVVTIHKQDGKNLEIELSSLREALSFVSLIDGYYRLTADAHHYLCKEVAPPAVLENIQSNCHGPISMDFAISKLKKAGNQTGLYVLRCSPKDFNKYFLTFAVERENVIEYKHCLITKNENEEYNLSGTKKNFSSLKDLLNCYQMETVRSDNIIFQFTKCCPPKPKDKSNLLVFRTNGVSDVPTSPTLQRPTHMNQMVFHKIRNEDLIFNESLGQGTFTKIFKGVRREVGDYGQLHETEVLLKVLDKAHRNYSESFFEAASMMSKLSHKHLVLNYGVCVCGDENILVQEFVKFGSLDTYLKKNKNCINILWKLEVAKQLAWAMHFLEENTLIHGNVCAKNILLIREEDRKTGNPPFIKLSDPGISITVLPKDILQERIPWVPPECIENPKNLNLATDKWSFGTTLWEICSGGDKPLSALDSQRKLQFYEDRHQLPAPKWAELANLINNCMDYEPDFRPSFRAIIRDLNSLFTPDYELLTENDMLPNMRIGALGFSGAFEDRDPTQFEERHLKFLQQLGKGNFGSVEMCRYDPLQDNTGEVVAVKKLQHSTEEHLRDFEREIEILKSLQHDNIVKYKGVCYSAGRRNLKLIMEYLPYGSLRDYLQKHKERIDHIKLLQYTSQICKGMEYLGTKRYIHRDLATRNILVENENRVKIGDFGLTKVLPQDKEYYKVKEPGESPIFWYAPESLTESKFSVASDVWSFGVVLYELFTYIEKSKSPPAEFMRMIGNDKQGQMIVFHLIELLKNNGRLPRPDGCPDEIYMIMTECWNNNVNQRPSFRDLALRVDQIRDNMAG

[15] = biological target: EPHB1 (UniProt P54762); assay: as above
EPHB1, sequence (P54762 whole entry, looked up): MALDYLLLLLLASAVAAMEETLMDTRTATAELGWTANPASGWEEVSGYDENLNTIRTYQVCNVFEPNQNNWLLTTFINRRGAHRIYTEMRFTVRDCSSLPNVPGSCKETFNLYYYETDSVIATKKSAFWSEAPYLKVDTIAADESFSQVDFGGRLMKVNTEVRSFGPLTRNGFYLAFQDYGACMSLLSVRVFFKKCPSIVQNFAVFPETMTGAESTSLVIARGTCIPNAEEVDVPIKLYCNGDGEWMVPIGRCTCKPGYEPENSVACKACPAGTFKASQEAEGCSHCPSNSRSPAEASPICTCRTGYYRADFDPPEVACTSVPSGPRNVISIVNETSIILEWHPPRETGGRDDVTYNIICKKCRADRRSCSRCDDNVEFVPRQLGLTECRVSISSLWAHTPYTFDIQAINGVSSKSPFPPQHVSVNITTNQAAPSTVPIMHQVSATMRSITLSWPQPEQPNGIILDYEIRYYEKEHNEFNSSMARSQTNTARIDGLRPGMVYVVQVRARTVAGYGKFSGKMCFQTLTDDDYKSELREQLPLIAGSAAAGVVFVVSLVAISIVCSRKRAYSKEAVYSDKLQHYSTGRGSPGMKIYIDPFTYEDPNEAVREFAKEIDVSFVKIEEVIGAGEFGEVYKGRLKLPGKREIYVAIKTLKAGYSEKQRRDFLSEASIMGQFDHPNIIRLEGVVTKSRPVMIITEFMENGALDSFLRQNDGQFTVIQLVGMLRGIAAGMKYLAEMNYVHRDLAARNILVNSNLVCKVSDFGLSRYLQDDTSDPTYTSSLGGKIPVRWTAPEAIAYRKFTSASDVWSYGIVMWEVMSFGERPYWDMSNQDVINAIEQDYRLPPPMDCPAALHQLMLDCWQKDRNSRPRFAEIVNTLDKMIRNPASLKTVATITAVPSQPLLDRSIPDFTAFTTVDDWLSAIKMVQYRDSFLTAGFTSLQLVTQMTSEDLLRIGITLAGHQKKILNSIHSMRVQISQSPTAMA

[16] = biological target: Fyn (UniProt P06241); assay: as above
Fyn, sequence (P06241 whole entry, looked up, the tested form may be a part): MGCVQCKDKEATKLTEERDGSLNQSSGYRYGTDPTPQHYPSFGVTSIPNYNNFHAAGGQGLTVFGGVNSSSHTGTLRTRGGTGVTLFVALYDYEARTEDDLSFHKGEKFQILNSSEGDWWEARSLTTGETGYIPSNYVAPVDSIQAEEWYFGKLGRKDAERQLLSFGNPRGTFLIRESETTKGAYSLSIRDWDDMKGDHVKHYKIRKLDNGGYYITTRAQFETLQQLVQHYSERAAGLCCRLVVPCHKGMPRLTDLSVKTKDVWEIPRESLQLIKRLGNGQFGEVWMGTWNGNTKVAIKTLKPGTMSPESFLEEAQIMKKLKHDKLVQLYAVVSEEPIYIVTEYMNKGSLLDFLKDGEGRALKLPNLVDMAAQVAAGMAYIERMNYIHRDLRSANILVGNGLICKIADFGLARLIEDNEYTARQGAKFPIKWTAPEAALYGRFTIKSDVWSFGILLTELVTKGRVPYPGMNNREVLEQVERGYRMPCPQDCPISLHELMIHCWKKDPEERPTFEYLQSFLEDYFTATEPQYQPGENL
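Throughout, for SH2 binding enrichment of the phosphorylated peptide, bacterial display: peptide library displayed on the E. coli surface as eCPX fusions, selected cells deep-sequenced, score is each peptide's frequency after selection divided by its frequency in the input.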
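Throughout, for phosphorylation enrichment, bacterial display: 11-residue human phosphosite peptides and single-mutation variants displayed on the E. coli surface, counted by deep sequencing, each peptide's frequency after selection divided by its frequency in the unselected input library; frequency after pTyr selection over input frequency; kinase dosed for 20-30% of maximal phosphorylation in three min.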

Grb2 SH2, sequence (P62993 whole entry, looked up): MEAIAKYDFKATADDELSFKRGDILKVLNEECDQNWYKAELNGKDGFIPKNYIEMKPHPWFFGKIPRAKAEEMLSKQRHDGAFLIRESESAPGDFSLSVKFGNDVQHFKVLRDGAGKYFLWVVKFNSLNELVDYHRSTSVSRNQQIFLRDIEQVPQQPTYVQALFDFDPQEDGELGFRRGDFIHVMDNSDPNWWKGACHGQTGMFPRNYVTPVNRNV

Sequence | SH2 binding enrichment [1] | SH2 binding enrichment [2] | SH2 binding enrichment [3] | phosphorylation enrichment [4] | phosphorylation enrichment [5] | phosphorylation enrichment [6] | phosphorylation enrichment [7] | phosphorylation enrichment [8] | phosphorylation enrichment [9] | phosphorylation enrichment [10] | phosphorylation enrichment [11] | phosphorylation enrichment [12] | phosphorylation enrichment [13] | phosphorylation enrichment [14] | phosphorylation enrichment [15] | phosphorylation enrichment [16]
GFRVCYTPDSR [PTPRF_Y451_Y450C_YF] | 0.787 | 0.444 | 0.687 | 1.34 | 0.419 | 0.451 | 0.472 | 0.548 | 0.777 | 0.691 | 0.512 | 1.26 | 0.507 | 1.01 | 0.513 | 0.397
GGGGGYNCSSG [FUS_Y232_R234C] | 0.928 | 0.574 | 0.613 | 0.666 | 0.342 | 0.355 | 0.378 | 0.415 | 0.534 | 0.626 | 0.432 | 0.563 | 0.411 | 0.614 | 0.402 | 0.41
GGRKGYGDFSR [RECQL5_Y478] | 1.15 | 0.674 | 0.798 | 0.622 | 0.425 | 0.418 | 0.345 | 0.352 | 0.944 | 0.363 | 0.354 | 0.416 | 0.33 | 0.422 | 0.412 | 0.334
GGSDCYGSLRP [MYLK_Y846_R845C] | 0.694 | 0.36 | 0.608 | 0.887 | 0.429 | 2.75 | 0.351 | 0.558 | 0.746 | 0.566 | 0.508 | 0.703 | 3.08 | 0.792 | 0.466 | 2.79
GGYTCYSDGKK [PROS1_Y266_C267S] | 0.677 | 0.555 | 0.745 | 1.22 | 0.441 | 0.516 | 0.592 | 0.593 | 0.908 | 0.826 | 0.561 | 1.13 | 0.499 | 1.01 | 0.677 | 0.458
GHEFIYVDRMQ [PDGFRB_Y581_P584R_YF] | 0.92 | 0.399 | 0.741 | 0.836 | 0.479 | 2.02 | 0.555 | 0.382 | 0.651 | 0.624 | 0.685 | 0.777 | 1.11 | 0.541 | 0.47 | 1.42
GHLFAYDWIRI [BEST1_Y227_S231R_YF] | 1.66 | 1.56 | 1.43 | 1.51 | 4.78 | 0.941 | 1.68 | 12.5 | 0.674 | 1.22 | 0.641 | 1 | 1.6 | 0.867 | 0.787 | 0.673
GIVEDYRPPLY [ACVRL1_Y421_F425L] | 0.859 | 0.429 | 0.783 | 0.918 | 0.393 | 0.412 | 0.387 | 0.399 | 0.59 | 0.608 | 0.482 | 0.727 | 0.382 | 0.675 | 0.382 | 0.455
GIYEDYVEGLR [MYL6_Y89_T85I] | 0.697 | 0.51 | 0.717 | 1.45 | 1.42 | 4.26 | 0.965 | 6.33 | 0.727 | 0.86 | 6.61 | 1.49 | 3.65 | 0.946 | 5.82 | 6.03
GIYKDYYRYNF [PLA2G2D_Y85_S80G] | 1.13 | 1.03 | 1.31 | 0.805 | 4.72 | 4.78 | 12.2 | 0.938 | 5.76 | 9.59 | 5.13 | 1.4 | 3.32 | 7.91 | 5.44 | 5
GKMSSYAFFVQ [HMGB1_Y16] | 1.13 | 0.982 | 1.51 | 1.14 | 1.29 | 0.562 | 0.603 | 0.474 | 0.849 | 0.741 | 0.711 | 1.01 | 0.513 | 1.01 | 0.809 | 0.505
GKSFIYAAFHA [KCNT1_Y563_T562I] | 0.893 | 0.685 | 1 | 1.25 | 1.72 | 3.84 | 0.452 | 0.672 | 2.75 | 0.805 | 0.522 | 1.18 | 2.83 | 1.32 | 0.787 | 4.67
GKSFTYAAFHA [KCNT1_Y563] | 0.855 | 0.41 | 0.527 | 0.812 | 0.819 | 5.91 | 0.51 | 0.454 | 0.654 | 0.583 | 0.613 | 0.849 | 4.03 | 0.826 | 0.603 | 5.65
GLDSSYLLRDS [SH2D1A_Y29_G27S] | 0.908 | 0.476 | 0.64 | 0.612 | 0.422 | 0.386 | 0.613 | 0.305 | 0.434 | 0.426 | 0.36 | 0.477 | 0.323 | 0.464 | 0.343 | 0.386
GLSSAYGDLTS [KRT8_Y427_G429D] | 0.878 | 0.608 | 0.655 | 0.659 | 0.413 | 0.464 | 0.506 | 0.479 | 0.536 | 0.486 | 0.429 | 0.718 | 0.535 | 0.535 | 0.56 | 0.454
GQECEYPPTQD [METAP2_Y137] | 0.918 | 0.521 | 0.831 | 1.41 | 0.525 | 0.563 | 0.584 | 0.609 | 1.06 | 0.852 | 0.67 | 1.34 | 0.63 | 1.24 | 0.866 | 0.534
GQKVAYGGTED [ALDH3A1_Y305_G309E] | 0.788 | 0.471 | 0.549 | 0.939 | 0.417 | 0.412 | 0.412 | 0.344 | 0.577 | 0.63 | 0.471 | 0.747 | 0.402 | 0.791 | 0.424 | 0.438

Sequence | SH2 binding enrichment [1] | SH2 binding enrichment [2] | SH2 binding enrichment [3] | phosphorylation enrichment [4] | phosphorylation enrichment [5] | phosphorylation enrichment [6] | phosphorylation enrichment [7] | phosphorylation enrichment [8] | phosphorylation enrichment [9] | phosphorylation enrichment [10] | phosphorylation enrichment [11] | phosphorylation enrichment [12] | phosphorylation enrichment [13] | phosphorylation enrichment [14] | phosphorylation enrichment [15] | phosphorylation enrichment [16]
GRGMPYGGRGD [TGM1_Y312_R307G] | 0.87 | 0.513 | 0.648 | 0.476 | 0.379 | 0.402 | 0.355 | 0.399 | 0.513 | 0.449 | 0.325 | 0.476 | 0.4 | 0.488 | 0.338 | 0.343
GRIHSYRGHLW [VHL_Y112_R107G] | 1.85 | 1.61 | 1.99 | 0.712 | 0.357 | 0.347 | 0.363 | 0.373 | 0.51 | 0.438 | 0.392 | 0.585 | 0.359 | 0.535 | 0.387 | 0.38
GRLVEYDIDEV [SMS_Y134] | 0.812 | 0.845 | 0.613 | 1.48 | 0.489 | 0.563 | 0.494 | 0.658 | 0.902 | 0.771 | 1.05 | 1.28 | 0.549 | 1.45 | 0.709 | 0.508
GRPLFYWLTGC [LYZL6_Y140] | 0.803 | 0.527 | 0.85 | 1.13 | 0.469 | 0.33 | 0.533 | 0.418 | 0.713 | 0.836 | 0.491 | 0.968 | 0.42 | 1.04 | 0.686 | 0.407
GRPLSYWLTGC [LYZL6_Y140_F139S] | 0.763 | 0.464 | 0.681 | 1.33 | 0.411 | 0.397 | 0.535 | 0.556 | 0.846 | 0.793 | 0.664 | 1.12 | 0.503 | 1.24 | 0.686 | 0.527
GRQVIYTENER [GPR143_Y231_G229V] | 0.729 | 0.558 | 0.681 | 0.89 | 0.43 | 0.513 | 0.435 | 0.382 | 0.537 | 0.479 | 0.41 | 0.531 | 0.462 | 0.552 | 0.441 | 0.407
GRRNTYFASIA [ACADM_Y352_YF] | 0.696 | 0.356 | 0.528 | 0.556 | 0.466 | 0.615 | 0.439 | 0.481 | 0.588 | 0.507 | 0.423 | 0.722 | 0.423 | 0.5 | 0.346 | 0.551
GSESDYIVMPN [SCARB1_Y133] | 0.874 | 0.455 | 0.55 | 1.04 | 0.538 | 0.63 | 5.92 | 0.455 | 0.752 | 3.84 | 8.31 | 2.88 | 0.527 | 1.03 | 8.5 | 0.575
GSRGKCSSGFR [ATM_Y332_Y332C] | 1.06 | 0.915 | 0.713 | 0.558 | 0.411 | 0.387 | 0.403 | 0.433 | 0.709 | 0.423 | 0.379 | 0.471 | 0.464 | 0.532 | 0.41 | 0.395
GSSSSCGQHGS [HRNR_Y517_Y517C] | 0.982 | 0.553 | 0.875 | 0.622 | 0.294 | 0.283 | 0.363 | 0.38 | 0.411 | 0.522 | 0.311 | 0.556 | 0.333 | 0.448 | 0.342 | 0.4
GTFVIYVRFSG [FLNB_Y1687_G1691S_YF] | 1.15 | 0.442 | 0.812 | 1.4 | 0.472 | 0.539 | 0.406 | 0.443 | 0.979 | 0.569 | 0.468 | 1.17 | 0.454 | 1.14 | 0.572 | 0.426
GTVRDYPDFSP [ANXA3_Y15] | 0.732 | 0.439 | 0.623 | 0.79 | 0.364 | 0.372 | 0.508 | 0.395 | 0.532 | 0.587 | 0.559 | 0.759 | 0.49 | 0.702 | 0.44 | 0.444
GVFSRHFTTFD [CLCA1_Y661_Y661H_YF] | 0.674 | 1.78 | 0.612 | 1.05 | 0.166 | 0.184 | 0.644 | 0.946 | 0.346 | 0.814 | 1.1 | 1.31 | 1.03 | 0.483 | 0.953 | 0.48
GVPLGYPIKAP [ELN_Y206] | 0.716 | 0.573 | 0.666 | 0.573 | 0.419 | 0.427 | 0.462 | 0.45 | 0.485 | 0.399 | 0.388 | 0.563 | 0.388 | 0.534 | 0.323 | 0.384
GVRFTYTIDGS [DCX_Y105_I104T_YF] | 0.87 | 0.475 | 0.545 | 1.33 | 0.423 | 0.435 | 0.601 | 0.384 | 0.715 | 0.729 | 0.67 | 1.26 | 0.496 | 1.24 | 0.458 | 0.426
HDRREYSRFEK [ITGB7_Y758_Y753H] | 0.965 | 0.722 | 0.873 | 0.973 | 0.445 | 0.53 | 0.585 | 0.731 | 0.887 | 0.718 | 0.373 | 0.743 | 0.524 | 0.647 | 0.754 | 0.317
